B1: p75^NTR TMD-AraTM chimera, wild type (MBP - p75^NTR TMD - AraC) [human] / itself (parent)
chain: NLIPVYCSILAAVVVGLVAYIAFKRW

Variants of: B1
Test: AraTM assay
Settings: with itself, 100% = WT TMD without drug, read off a plot

percent of parent (7.5 µM Div17E5)	percent of parent (15 µM Div17E5)	percent of parent (20 µM Div17E5)	percent of parent (50 µM Div17E5)	percent of parent (no drug (0 µM Div17E5))	Variant
97%	97%	97%	100%	100%	chain 1 I3A
92%	93%	95%	92%	97%	chain 1 V5A
68%	65%	55%	57%	100%	chain 1 P4G
